Data: paper PMC12856111
Blank lines part the entries; values can stand above or below the substance they belong to.

Assays:
Assay in all cases: SEC; Superdex 200 Increase 10/300 GL, 4°C; mFAS samples incubated at 37°C for 1 h beforehand to promote dimerization; oligomeric state read from the elution volume
[1] = target: mFASΔTE (metazoan fatty acid synthase lacking the TE domain) (mouse) (UniProt P19096)
[2] = target: mFASΔTE G2054F (mouse) (UniProt P19096)
[3] = target: mFASΔTE S2014A (mouse) (UniProt P19096)
[4] = target: mFASΔTE S2014A/Y2027F (mouse) (UniProt P19096)
[5] = target: mFASΔTE T2076F (mouse) (UniProt P19096)
[6] = target: mFASΔTE Y2027F (mouse) (UniProt P19096)

stoichiometry N [1]: 2
Substance: mFASΔTE (metazoan fatty acid synthase lacking the TE domain) (from UniProt P19096 1-2504) (enzyme)

stoichiometry N [2]: 2
Substance: mFASΔTE G2054F (from UniProt P19096 1-2504) (enzyme)

stoichiometry N [3]: 2
Substance: mFASΔTE S2014A (from UniProt P19096 1-2504) (enzyme)

stoichiometry N [4]: 2
Substance: mFASΔTE S2014A/Y2027F (from UniProt P19096 1-2504) (enzyme)

stoichiometry N [5]: 2
Substance: mFASΔTE T2076F (from UniProt P19096 1-2504) (enzyme)

stoichiometry N [6]: 2
Substance: mFASΔTE Y2027F (from UniProt P19096 1-2504) (enzyme)
